US20030096367A1 (WASHINGTON UNIVERSITY, published 2003)

Legend:
wild type human Bcl-2 = target: T1, wild type human Bcl-2 (human, UniProt P10415 1-239); assay: immunoprecipitation of human Bcl-2 from double transfected FL5.12 cells, Western blot with anti-mouse Bcl-2 antibody (FIG. 21)
T1 construct: also called hBcl-2; human Bcl-2 wild-type
Text: (§1) Immunoprecipitates were washed (unless indicated otherwise) once in lysis buffer followed by a wash in lysis buffer without NP-40. Immunoprecipitates were solubilized with SDS-PAGE sample buffer and electrophoresed through 12.5% SDS-polyacrylamide gels. Gels containing (³⁵ S)methionine labeled proteins were fixed with 10% glacial acetic acid and 30% methanol overnight, enhanced by impregnating with a commercial fluorography enhancing solution (Enhance by DuPont) for 60′, and […] in water for 30′. Gels were then dried and autoradiography performed at−70° C.
(§2) For immunoblots, proteins were electrotransferred overnight at 4° C. on nitrocellulose membranes. Filters were blocked for 2 hours with phosphate-buffered saline containing 3% non-fat milk. All additional immunostaining steps were performed in phosphate-buffered saline with 0.05% Tween-20 (PBS-Tween) at room temperature. Filters were incubated with primary antibody for 2 hours. Species specific biotinylated secondary antibodies (1:300) were also reacted for 2 hours. Immunoblots were reacted with horseradish-peroxidase-Streptavidin (1:1000) for 1 hour. Filters were washed in PBX-Tween 4 times for 5′ between each step and were developed with […] (BioRad) enhanced with nickel chloride (0.03%).
(§3) In FIG. 21 cells are created that bear two expression constructs. The Dα15 cell line is an FL5.12 bearing human Bcl-2 wild-type and mouse Bcl-2 wild-type vector. The DN2 bears a control Neomycin resistant expression vector and mouse Bcl-2 wild-type vector. The clone DSM4-5 contains mutant Bcl-2 of domain I and a mouse Bcl-2 wild-type whereas the DSM-4 contains another Bcl-2 mutant of human origin with mouse Bcl-2 wild-type. […] In FIG. 21B we see a primary immunoprecipitation of either wild-type human Bcl-2 or the mutated human Bcl-2 in which the 3-4 and 4-7 mutants have no associated Bax. Those immunoprecipitations are then developed by Western blot analysis with an anti-mouse Bcl-2 antibody. Both the wild-type human Bcl-2 as well as the two mutants mI 3-4 and mI 4-7 both associate with the wild-type mouse Bcl-2.

[1] = target: T2, human Bcl-2 mutant mI-3 (alanine for the glycine in the WGR sequence of domain I) (human, UniProt P10415 1-239); assay: as above
T2 construct: also called mI 3-4; mI3-4
Text: as §1, §2, §3

[2] = target: T3, human Bcl-2 mutant mI-4 (glutamic acid for the glycine in the WGR sequence of domain I) (human, UniProt P10415 1-239); assay: as above
T3 construct: also called mI 4-7; mI4-7
Text: as §1, §2, §3

[3] = target: T2, human Bcl-2 mutant mI-3 (alanine for …); assay: immunoprecipitation of radiolabeled FL5.12 and 2B4 stable transfectants (FIG. 18)
Protocol: (§4) Prior to metabolic labeling, cells were washed once in prewarmed, serum-free, methionine-free Dulbecco's medium. Cells were resuspended at 3-5×10⁶ cells/ml in methionine-free Dulbecco's medium supplemented with 10% dialyzed FCS and either 5% complete medium or 5% WEHI 3B supernatant. Metabolic labeling was performed with 40 μCi/ml of ³⁵S)methionine, (³⁵S)cysteine for 9-12 hours before lysis. All steps of the immunoprecipitation were carried out on ice or in the cold room. Cells were washed twice with cold phosphate-buffered saline and lysed in an NP-40 isotonic lysis buffer with freshly added protease inhibitors (142.5 mM KCl, 5 mM MgCl₂, 10 mM HEPES pH:7.2, 1 mM EGTA, 0.2% NP-40, 0.2 mM phenylmethylsulfonyl fluoride, 0.1% Aprotinin, 0.7 μg/ml Pepstatin and 1 μg/ml Leupeptin) by nutation for 30′. Nuclei and unlysed cellular debris were removed by centrifugation at […] for 10′. Lysates were precleared with 10% v/v Protein A-Sepharose (Prot.A-S) for 30′ which was removed by centrifugation at 400×g for 2′. In experiments, the lysates were also mixed with 10× excess cold cells lysates for 15′ prior to the addition of the antibody. Specific antibodies were added for 90′ and immunoprecipitates were captured with 10% v/v Prot.A-S for 60′. […]

[4] = target: T3, human Bcl-2 mutant mI-4 (glutamic acid …); assay: as above
Protocol: as §4

| Binder | binding result (wild type human Bcl-2) | binding result [1] | binding result [2] | binding result [3] | binding result [4] |
| --- | --- | --- | --- | --- | --- |
| murine Bcl-2 (wild type) (other, UniProt P10417 1-236, looked up, also called endogenous murine Bcl-2; mouse Bcl-2 wild-type) MAQAGRTGYDNREIVMKYIHYKLSQRGYEWDAGDADAAPLGAAPTPGIFSFQPESNPMPAVHRDMAARTSPLRPLVATAGPALSPVPPVVHLTLRRAGDDFSRRYRRDFAEMSSQLHLTPFTARGRFATVVEELFRDGVNWGRIVAFFEFGGVMCVESVNREMSPLVDNIALWMTEYLNRHLHTWIQDNGGWDAFVELYGPSMRPLFDFSWLSLKTLLSLALVGACITLGAYLGHK | binds | binds | binds | – | – |
| murine Bax (endogenous p21 of FL5.12 cells, Bax alpha) (other, also called murine p21 protein; mouse p21) MDGSGEQLGSGGPTSSEQIMKTGAFLLQGFIQDRAGRMAGETPELTLEQPPQDASTKKLSECLRRIGDELDSNMELQRMIADVDRDSPREVFFRVAADMFADGNFNTGRVVALFYFASKLVLKALCTKVPELIRTIMGWTLDFLRERLLGWIQDQGGWEGLLSYFGTPTWQTVTIFVAGVLTASLTIWKKMG | – | – | – | no binding | no binding |
